Assay [1] concerns induction of MSCs, cancer-associated MSCs, and M-MDSCs by FSTL1. The assay can be described thus: Inhibitory activity against induction of MSC, cancer-associated MSC and MDSC by FSTL1 (Examples 13-15). Format: cell-based, mouse. As to the method:
Mouse bone marrow cells prepared in the same way as in Example 4 were supplemented with 20 ng/mL (final concentration) of FSTL1 and 10 μg/mL of the anti-FSTL1 antibody (#6-55, #7-34, #8-1, or #8-4), an anti-PD-L1 antibody reported to have an immunosuppression-mitigating effect, or a control antibody anti-DNP antibody and cultured under stimulation. 8 days thereafter, the number of cells was counted while the cells were stained with a PE-Cy5-labeled anti-CD45 antibody, a PE-labeled anti-ALCAM antibody, a FITC-labeled anti-CD271 antibody (Abcam plc, Cat. No. AB62122), a FITC-labeled anti-CD11b antibody (BD Pharmingen/Becton, Dickinson and Company, Cat. No. 553310), and a PE-Cy5-labeled anti-Gr1 antibody (eBioscience, Cat. No. 15-5931) in order to detect MSCs (CD45-negative cells), cancer-associated MSCs (CD45-negative, ALCAM-positive, and CD271-positive cells) which are MSCs increasing in number in association with cancer metastasis, and monocytic myeloid-derived suppressor cells (M-MDSCs: CD11b-positive, Gr1-positive, and ALCAM-positive cells) increasing in number together with cancer-associated MSCs, and the contents of the cells mentioned above were analyzed by flow cytometry using FACScan to calculate the percentage and number of MSCs per culture (FIG. 8). […] PD-L1 is expressed in MSC and presumably influences the induction of MSCs.
The antibody clone (#6-55, #7, #10, #13, or […]) was evaluated for its activity by the same testing method as in Example 13. #6-55 was set as a positive control for activity. […] Mouse bone marrow cells were supplemented with FSTL1 and the predetermined concentration of each antibody and cultured for 8 days. 5×10^4 cells/well were separated from each culture system and evaluated for the ability to differentiate into adipocytes using an adipocyte differentiation reagent included in “Mesenchymal Stem Cell Functional Identification Kit (R&D Systems, Inc., Cat. No. SC010)”. For the evaluation method, the cells were supplemented with the adipocyte differentiation reagent and cultured for 8 days. Then, adipocytes per culture system were counted under a microscope for evaluation. In the graph, none is depicted in the leftmost bar, and the control antibody is depicted in the second bar from the left followed by the anti-FSLT1 antibody clones. […]
Mouse bone marrow cells (bone marrow cells prepared in the same way as in Example 4) were supplemented with 20 ng/mL (final concentration) of FSTL1 and 20.0, 10.0, 5.0, or 2.5 μg/ml (final concentration) of the rat anti-FSTL1 antibody or #6-55. […] The cells were cultured for 8 days, and the inhibitory activity of each antibody against the induction of MSCs, cancer-associated MSCs, and M-MDSCs by FSTL1 was evaluated in the same way as in Example 13 (FIG. 10A). […]

Assay [2] has as its target T1, mouse FSTL1 (Mus musculus, UniProt Q62356).
T1 construct: AAA linker + 10xHis (C); made in house; host or cells: Expi293 (transient expression; purified from culture supernatant on HisPur Cobalt Resin)
T1 sequence (Q62356 with tags, fused parts or gaps): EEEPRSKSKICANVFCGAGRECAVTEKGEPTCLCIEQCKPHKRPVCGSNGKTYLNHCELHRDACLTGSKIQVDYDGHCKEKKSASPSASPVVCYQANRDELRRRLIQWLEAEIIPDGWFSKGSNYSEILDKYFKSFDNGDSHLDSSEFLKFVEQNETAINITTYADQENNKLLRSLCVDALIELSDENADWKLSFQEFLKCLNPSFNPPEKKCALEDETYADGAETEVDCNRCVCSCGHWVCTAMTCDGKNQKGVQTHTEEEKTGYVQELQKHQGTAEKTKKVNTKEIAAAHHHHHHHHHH
Kind of assay: ELISA binding activity of purified antibody against mouse FSTL1. As to the method:
(§1) The reactivity of the obtained antibody clones described above with FSTL1 was evaluated by ELISA under the following conditions.
(Table 2 ELISA Conditions for Binding Activity Evaluation of Purified Antibody)
(§2) Antibodies used: anti-dinitrophenyl (DNP) antibody (negative control), #5-2, #5-3, #5-8, #5-10, #5-43, #6-55, and #7-34
FIGS. 96 and 97 show results of evaluating binding activity under the condition of Table 3 as to clones differing in screening and antibody purification timings.
(Table 3 ELISA Conditions for Binding Activity Evaluation of Purified Antibody)

Assay [3] has as its target T1, mouse FSTL1. The assay can be described thus: ELISA binding activity of purified antibody against mouse FSTL1 (Example 2). As to the method:
as §1
(Table 2 ELISA conditions for binding activity evaluation of purified antibody) Antibodies used: anti-dinitrophenyl (DNP) antibody (negative control), #5-2, #5-3, #5-8, #5-10, #5-43, #6-55, and #7-34
FIGS. 2 and 3 show results of evaluating binding activity under the condition of Table 3 as to clones differing in screening and antibody purification timings.
as §2
FIGS. 32 and 33 show results of evaluating binding activity under the condition of Table 3 as to clones differing in screening and antibody purification timings.
(In general: ELISA stands for enzyme-linked immunosorbent assay.)

The mark [4] stands for this setting: Example 14, FIG. 9A/39A, #6-55 as positive control.
Where [5] appears, read: ELISA Table 3 conditions, FIG. 97B.

Entries after “also recorded” stand apart in the source; their conditions may differ.

B1: #33: chicken-mouse chimeric anti-FSTL1 antibody clone; variable regions SEQ ID NO: 823 (light), 825 (heavy) (antibody, V domains shown)
VH: AVTLDESGGGLQTPGGGLSLVCKASGFTFSSFNMNWVRQAPGKGLEYVAEISGTGSSTYYGSAVKGRATISRDNGQSTVRLQLNNLRAEDTATYFCARGDGAYSIDAWGHGTEVIVSS
VL: ASTQPSSVSANPGETVEITCSGDSSYYGWFQQKSPGSAPVTVIYDNTNRPSDIPSRFSGSKSGSTATLTITGVRAEDEAVYYCGGYDSSTYDGIFGAGTTLTVL
modifications: mouse constant regions
As to B1, in assay [1] (setting [4]), the “inhibitory activity against the induction of MSCs, cancer-associated MSCs, and M-MDSCs by FSTL1” value (“inhibitory activity” below) is “inhibitory activity equivalent to or higher than that of the positive control (#6-55); also recorded: inhibitory activity equivalent to or higher than that of the positive control (16-55)”.

B2: #13: chicken-mouse chimeric anti-FSTL1 antibody clone; variable regions SEQ ID NO: 815 (light), 817 (heavy) (antibody, V domains shown)
VH: AVTLDESGGGLQTPGGGLSLVCKASGFTFSSVTMQWVRQAPGKGLEWVASICSGSSTYYGPAVKGRATISRDNGQNTVRLQLNNLRAEDTATYYCAKIVGRGRWSCTSAAYNIDAWGHGTEVIVSS
VL: ASTQPSSVSANPGETVKITCSGGGNNYGWYQQKSPGSAPVTVIYNNNNRPSNIPSRFSGSKSGSTNTLTITGVQAEDEAVYYCGSYDSSSDSGIFGAGTTLTVL
modifications: mouse constant regions
B2: the “inhibitory activity” value in assay [1] (setting [4]) is recorded as “inhibitory activity equivalent to or higher than that of the positive control (#6-55); also recorded: inhibitory activity equivalent to or higher than that of the positive control (16-55)”.

B3: #5-8: chicken-mouse chimeric anti-FSTL1 antibody clone; variable regions SEQ ID NO: 771 (light), 773 (heavy) (antibody, V domains shown)
VH: AVTLDESGGGLQTPGGGLSLVCKGSGFTFSSFNMFWVRQAPGKGLEWVAGIGKDGVPKYGTAVDGRATISKDNGQSTMRLQLNNLRAEDTGTYFCAKAAGGCSYDWCGIYTGDIDTWGHGTEVIVSS
VL: ASTQPSSVSANPGEAVKITCSGGSGSYYGWYQQKSPGSAPVTVIYNNNQRPSDIPSRFSGSKSGSTATLTITGVQAEDEAVYFCGGYDSSTGHGGIFGAGTTLTVL
modifications: mouse constant regions
B3: the “binding activity against mouse FSTL1” value in assay [2] (setting [5]) and in assay [3] (FIG. 3B/33B) was “no binding activity” throughout.

B4: #8-1: chicken-mouse chimeric anti-FSTL1 antibody clone; variable regions SEQ ID NO: 791 (light), 793 (heavy) (antibody, V domains shown)
VH: AVTLDESGGGLQTPGGALSLVCKGSGFTFSSFNMFWVRQAPGKGLEWVAGIGKDGVPKYGAAVDGRATISKDNGQSTMRLQLNNLRAEDTGTYFCAKAAGGCSYDWCGIYAGDIDTWGHGTEVIVSS
VL: ASTQPSSVSANPGEAVKITCSGGSGSYYGWYQQKSPGSAPVTVIYNNNQRPSDIPSRFSGSKSGSTATLTITGVQAEDEAVYFCGGYDSSSGHGGIFGAGTTLTVL
modifications: mouse constant regions
As to B4, the “binding activity against mouse FSTL1” value in assay [2] (setting [5]) is listed as “very slightly exhibited binding activity”; in assay [3] (FIG. 3B/33B), “slightly exhibited binding activity; also recorded: very slightly exhibited binding activity”.

B5: #8-4: chicken-mouse chimeric anti-FSTL1 antibody clone; variable regions SEQ ID NO: 795 (light), 797 (heavy) (antibody, V domains shown)
VH: AVTLDESGGGLQTPGGGLSLVCKGSGFTLSSFNMFWVRQAPGKGLEWVAGVGKDGGTAYGAAVDGRATISRDSGQSTVRLQLNNLRAEDTGTYFCAKAAGGCSYSWCGAYVGDLDAWGHGTEVIVSS
VL: ASSQPSSVSANPGETVKITCSGGSGYYYGWYQQKSPGSAPVTVIYNNDNKPSDIPSRFSGSKSGSTGTLTITGVQVEDEAVYFCGGYDNSGTGIFGAGTTLTVL
modifications: mouse constant regions
In the case of B5, the “binding activity against mouse FSTL1” value in assay [2] (setting [5]) and in assay [3] (FIG. 3B/33B) was “no binding activity” in each case.

B6: #6-55: chicken-mouse chimeric anti-FSTL1 antibody clone; variable regions SEQ ID NO: 783 (light), 785 (heavy) (antibody, V domains shown)
VH: AVTLDESGGGLQTPGGALSLVCKGSGFTFTSVTMQWVRQAPGKGLEWVASVCSGSSTYYAPAVKGRATISRDNGQSTVRLQLSNLRPEDTGTYYCAKIAGRARWSCTSAAYNIDAWGHGTEVIVSS
VL: ASTQPSSVSAIPGETVKITCSGGGNNYGWYQQRSPGSAPVTVIYYNDNRPSNIPSRFSGSTSGSTSTLTITGVQADDEAIYYCGSWDSNTDSGIFGAGTTLTVL
modifications: mouse constant regions
B6: the “binding activity against mouse FSTL1” value was “specific and equivalently strong binding activity” in assay [2] (ELISA, FIG. 95B); “specific and equivalently strong binding activity” in assay [3] (FIG. 1B/31B). Moreover, the dose dependence entry in assay [1] (Example 15, FIG. 10A/40A, 2.5-20.0 μg/ml) is on record as “No dose-dependent effect was confirmed; also recorded: dose dependence was not confirmed”. The “inhibitory activity” value in assay [1] (Example 15, FIG. 10A/40A, FSTL1 20 ng/mL, antibody 20.0, 10.0, 5.0, 2.5 μg/ml, 8 days) is “slightly superior; also recorded: at the same level”.

B7: #7-34: chicken-mouse chimeric anti-FSTL1 antibody clone; variable regions SEQ ID NO: 787 (light), 789 (heavy) (antibody, V domains shown)
VH: AVTLDESGGGLQTPGGGLSLVCKASGFTFSSVTMQWVRQAPGKGLEWVASICSGSSTYYGPAVKGRATISRDNGQNTVRLQLNNLRAEDTATYYCAKIVGRGRWSCTSAAYNIDAWGHGTEVIVSS
VL: ASTQPSSVSANPGETVKITCSGGGNNYGWYQQKSPGSAPVTVIYYNNNRPSNIPSRFSGSTSGSTSTLTITGVQAEDEAVYYCGSYEGSTDSGIFGAGTTLTVL
modifications: mouse constant regions
As for B7, the “binding activity against mouse FSTL1” value in assay [3] (FIG. 1B/31B) is “specific and equivalently strong binding activity”.
